Test results as given in PMC11806408, “Prodomain processing controls BMP‐10 bioactivity and targeting to fibrillin‐1 in latent conformation” (The FASEB Journal, 2025).

T1: ENG ectodomain (R&D Systems #1097‐EN‐025/CF) (human, UniProt P17813 26-586)
T1 construct: Endoglin (ENG), ectodomain; The methods read 'the human IgG1‐Fc‐fusion ectodomains of BMPRII, ALK‐1 as well as ENG'; also called endoglin; co‐receptor ENG; source: bought: R&D Systems (#1097‐EN‐025/CF); not shown: Fc (human IgG1)
T1 sequence (looked up): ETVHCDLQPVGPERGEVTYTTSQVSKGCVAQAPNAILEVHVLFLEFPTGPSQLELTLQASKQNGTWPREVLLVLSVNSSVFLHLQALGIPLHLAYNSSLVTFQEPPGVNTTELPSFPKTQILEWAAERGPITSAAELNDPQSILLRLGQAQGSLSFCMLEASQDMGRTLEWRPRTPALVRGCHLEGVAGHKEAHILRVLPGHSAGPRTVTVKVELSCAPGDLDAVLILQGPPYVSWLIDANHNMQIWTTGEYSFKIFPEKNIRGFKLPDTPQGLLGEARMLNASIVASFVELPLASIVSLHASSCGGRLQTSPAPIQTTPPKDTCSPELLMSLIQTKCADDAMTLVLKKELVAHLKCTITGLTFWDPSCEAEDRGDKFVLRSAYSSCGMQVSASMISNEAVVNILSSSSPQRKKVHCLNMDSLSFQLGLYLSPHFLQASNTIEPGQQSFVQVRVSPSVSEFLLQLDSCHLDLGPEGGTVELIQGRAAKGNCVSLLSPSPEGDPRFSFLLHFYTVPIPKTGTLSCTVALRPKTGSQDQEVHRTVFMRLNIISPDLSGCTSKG

T2: BMP‐10 PD (E. coli) (human, UniProt O95393 22-316)
T2 construct: also called BMP‐10 prodomain; E. coli‐derived BMP‐10 PD; source: E. coli BL21‐CodonPlus, purified (Ni‐NTA)
T2 sequence (looked up): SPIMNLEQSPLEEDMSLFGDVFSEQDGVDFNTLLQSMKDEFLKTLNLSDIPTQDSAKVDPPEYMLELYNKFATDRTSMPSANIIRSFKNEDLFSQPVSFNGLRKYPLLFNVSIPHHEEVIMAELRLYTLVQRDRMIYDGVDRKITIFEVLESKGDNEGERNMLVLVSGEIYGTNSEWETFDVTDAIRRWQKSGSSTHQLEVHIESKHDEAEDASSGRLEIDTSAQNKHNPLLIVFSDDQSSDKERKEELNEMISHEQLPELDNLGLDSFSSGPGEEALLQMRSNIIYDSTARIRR

T3: BMP‐9 PD (E. coli) (human, UniProt Q9UK05 23-319)
T3 construct: also called BMP‐9 prodomain; source: E. coli BL21‐CodonPlus, purified (Ni‐NTA)
T3 sequence (looked up): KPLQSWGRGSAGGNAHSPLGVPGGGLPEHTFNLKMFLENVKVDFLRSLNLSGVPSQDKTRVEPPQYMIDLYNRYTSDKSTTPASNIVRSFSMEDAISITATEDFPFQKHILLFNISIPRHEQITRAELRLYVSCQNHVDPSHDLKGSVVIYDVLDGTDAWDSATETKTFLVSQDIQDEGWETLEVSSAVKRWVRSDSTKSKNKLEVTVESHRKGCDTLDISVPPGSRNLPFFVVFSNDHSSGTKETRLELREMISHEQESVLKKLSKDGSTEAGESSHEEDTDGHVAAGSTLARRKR

B1: BMPRII ectodomain, human IgG1‐Fc fusion (R&D Systems #811‐BR‐100/CF) (Fc fusion, UniProt Q13873 27-150, looked up)
chain: SQNQERLCAFKDPYQQDLGIGESRISHENGTILCSKGSTCYGLWEKSKGDINLVKQGCWSHIGDPQECHYEECVVTTTPPSIQNGTYRFCCCSTDLCNVNFTENFPPPDTTPLSPPHSFNRDET
notes: Bone morphogenetic protein receptor type II (BMPRII), ectodomain; 'human' in the sentence may qualify the IgG1 Fc only; also called BMP type II receptor; source: bought: R&D Systems (#811‐BR‐100/CF)
B2: processed BMP‐10 CPLX (tag‐free, HEK293) (complex, human)
chain 1: T2 sequence (looked up)
chain 2: NAKGNYCKRTPLYIDFKEIGWDSWIIAPPGYEAYECRGVCNYPLAEHLTPTKHAIIQALVHLKNSQKASKACCVPTKLEPISILYLDKGVVTYKFKYEGMAVSECGCR
modifications: N‐glycosylation
notes: Bone morphogenetic protein 10, human, prodomain (PD) up to the endogenous PPC cleavage site RIRR; calculated molecular weight without glycans 34.6 kDa; secreted through the BM40 signal peptide of the vector; Bone morphogenetic protein 10, human, growth factor (GF) released by PPC cleavage after RIRR; calculated molecular weight of the monomer 12.2 kDa; The SPR methods say only 'processed BMP‐10 …
B3: BMP‐10 GF (R&D Systems #2926‐BP‐025/CF) (ligand, human, UniProt O95393 317-424, looked up)
chain: B2 chain 2
notes: Bone morphogenetic protein 10, human, growth factor (GF) moiety that follows the PPC cleavage site RIRR; calculated molecular weight of the monomer 12.2 kDa, dimer 24.4 kDa; Disulfide-linked GF dimer; also called BMP‐10 growth factor; BMP‐10 GF dimer; source: bought: R&D Systems (#2926‐BP‐025/CF); called commercially available HEK293‐derived
B4: BMP‐10 PD (HEK293, from the processed BMP‐10 CPLX) (domain or fragment, human)
chain: T2 sequence (looked up)
modifications: N‐glycosylation
notes: Bone morphogenetic protein 10, human, prodomain (PD) up to the endogenous PPC cleavage site RIRR; band at 45 kDa, calculated molecular weight without glycans 34.6 kDa; The methods of SEC/MALS and AUC say only 'two fractions of BMP‐10'; also called separated BMP‐10 PD

How the values were obtained:
[1] = molecular target: B2; assay: SPR; receptor ectodomains immobilised at 500 or 800 RUs on a CM5 chip by amine coupling; analytes 0 to 80 nM, 1:2 serial dilutions, 1× HBS‐EP; 1:1 model with mass transfer; apparent KD = kd/ka; three independent experiments; details: both partners purified
[2] = molecular target: T1, ENG ectodomain (R&D Systems …); assay: as above; details: both partners purified
BMP‐10 PD (E. coli) = molecular target: T2, BMP‐10 PD (E. coli); assay: SPR; PDs of BMP‐9, BMP‐10 and N‐10/C‐9 fusion PD immobilised at 450 RUs on a CM5 chip by amine coupling; BMP‐10 GF 0 to 80 nM, 1:2 serial dilutions, 1× HBS‐EP; 1:1 model with mass transfer; apparent KD = kd/ka; details: both partners purified
BMP‐9 PD (E. coli) = molecular target: T3, BMP‐9 PD (E. coli); assay: as above; details: both partners purified
[3] = molecular target: B1; assay: SPR; receptor ectodomains immobilised at 500 or 800 RUs on a CM5 chip by amine coupling; analytes 0 to 80 nM, 1:2 serial dilutions, 1× HBS‐EP; 1:1 model with mass transfer; apparent KD = kd/ka; three independent experiments; details: both partners purified
[4] = molecular target: T1, ENG ectodomain (R&D Systems …); assay: as above; details: both partners purified; remark: listed apart in the source
[5] = molecular target: the molecule itself; assay: AUC; sedimentation velocity of elution fractions after SEC/MALS (S200 Increase, 1× PBS), 54 000 rpm, 280 nm, c(s) fit; PD dimer

Binder: B1
Kd [1]: 0.8 ± 0.1 nM
koff [1]: 0.00079 s⁻¹
kon [1]: 940000 M⁻¹ s⁻¹

Binder: B2
binding result [2]: binds

Binder: B3
Kd (BMP‐10 PD (E. coli)): 5.2 ± 0.7 nM
koff (BMP‐10 PD (E. coli)): 0.0024 s⁻¹
kon (BMP‐10 PD (E. coli)): 500000 M⁻¹ s⁻¹
Kd (BMP‐9 PD (E. coli)): 10.4 ± 2.5 nM
koff (BMP‐9 PD (E. coli)): 0.0024 s⁻¹
kon (BMP‐9 PD (E. coli)): 230000 M⁻¹ s⁻¹
Kd [3]: 2.6 ± 0.6 nM
koff [3]: 0.0017 s⁻¹
kon [3]: 690000 M⁻¹ s⁻¹
Kd [4]: 16.3 ± 2.9 nM
koff [4]: 0.008 s⁻¹
kon [4]: 490000 M⁻¹ s⁻¹

Binder: B4
stoichiometry N [5]: 2
